Data from US20150044137A1.
Values joined by “and” are separate entries in the source; they are usually repeats but may differ in a detail not shown here. Equal values may be shown once.

Columns and labels:
[1] = target: Yu2 gp120 HIV-1 Env protein (HIV-1 (strain Yu2)) (UniProt P35961)

## CD4-Ig (Fc fusion)
[1]
  IC50 (read off the curve): 0.08 µg/mL and 0.1 µg/mL

## VRC01 (antibody)
HIV-1 gp120 (HIV-1)
  contribution of CDR H1 to gp120-binding surface area: 44 Å2
  contribution of CDR H2/FR3 to gp120-binding surface area: 701 Å2
  contribution of CDR H3 to gp120-binding surface area: 122 Å2
  total gp120-binding surface area (Total A 2): 867 Å2
